For assay [1], the target named is HIV-1 Env of isolate MGRM-C-017 (HIV-1). The assay can be described thus: cell-based or functional assay.
Assay [2] addresses HIV-1 Env of isolate MGRM-C-020 (HIV-1). The assay can be described thus: cell-based or functional assay.
For assay [3], the target named is HIV-1 Env of isolate MGRM-C-005 (HIV-1). Kind of assay: cell-based or functional assay.
For assay [4], the target named is HIV-1 Env of isolate MGRM-C-010 (HIV-1). Kind of assay: cell-based or functional assay.
The target in assay [5] is HIV-1 Env of isolate MGRM-C-006 (HIV-1). The assay can be described thus: cell-based or functional assay.
Assay [6] concerns the target HIV-1 Env of isolate MGRM-C-013 (HIV-1). Kind of assay: cell-based or functional assay.
Assay [7] deals with HIV-1 Env of isolate MGRM-C-002 (HIV-1). The assay can be described thus: cell-based or functional assay.
The target of assay [8] is HIV-1 Env of isolate MGRM-C-024 (HIV-1). Kind of assay: cell-based or functional assay.
Assay [9] concerns the target HIV-1 Env of isolate MGRM-C-025 (HIV-1). Kind of assay: cell-based or functional assay.
For assay [10], the target named is HIV-1 Env of isolate MGRM-C-019 (HIV-1). Kind of assay: cell-based or functional assay.
Assay [11] addresses HIV-1 Env of isolate MGRM-C-009 (HIV-1). Kind of assay: cell-based or functional assay.
Assay [12] addresses HIV-1 Env of isolate MGRM-C-007 (HIV-1). Kind of assay: cell-based or functional assay.
Assay [13] deals with HIV-1 Env of isolate MGRM-C-008 (HIV-1). The assay can be described thus: cell-based or functional assay.
Assay [14] deals with HIV-1 Env of isolate MGRM-C-015 (HIV-1). The assay can be described thus: cell-based or functional assay.
Assay [15] has as its target HIV-1 Env of isolate MGRM-C-014 (HIV-1). Kind of assay: cell-based or functional assay.
Assay [16] deals with HIV-1 Env of isolate MGRM-C-001 (HIV-1). Kind of assay: cell-based or functional assay.
Assay [17] addresses HIV-1 Env of isolate MGRM-C-004 (HIV-1). Kind of assay: cell-based or functional assay.
Assay [18] addresses HIV-1 Env of isolate MGRM-C-023 (HIV-1). Kind of assay: cell-based or functional assay.
Assay [19] deals with HIV-1 Env of isolate MGRM-C-012 (HIV-1). Kind of assay: cell-based or functional assay.
The target of assay [20] is HIV-1 Env of isolate MGRM-C-022 (HIV-1). The assay can be described thus: cell-based or functional assay.
The target in another assay is WT JR-FL gp120 (HIV-1). The assay can be described thus: ELISA, antigen-coated wells.
Assay [21] concerns the target HIV-1 Env of pseudovirus isolate MGRM-G-004 (HIV-1). Kind of assay: cell-based or functional assay.
In assay [22] the target is HIV-1 Env of pseudovirus isolate MGRM-G-006 (HIV-1). The assay can be described thus: cell-based or functional assay.
Assay [23] addresses HIV-1 Env of pseudovirus isolate MGRM-G-027 (HIV-1). The assay can be described thus: cell-based or functional assay.
In assay [24] the target is HIV-1 Env of pseudovirus isolate MGRM-G-017 (HIV-1). Kind of assay: cell-based or functional assay.
For assay [25], the target named is HIV-1 Env of pseudovirus isolate MGRM-G-014 (HIV-1). Kind of assay: cell-based or functional assay.
Assay [26] concerns the target HIV-1 Env of pseudovirus isolate MGRM-G-011 (HIV-1). Kind of assay: cell-based or functional assay.
In assay [27] the target is HIV-1 Env of pseudovirus isolate MGRM-G-001 (HIV-1). The assay can be described thus: cell-based or functional assay.
For assay [28], the target named is HIV-1 Env of pseudovirus isolate MGRM-G-019 (HIV-1). The assay can be described thus: cell-based or functional assay.
For assay [29], the target named is envelope of aMLV pseudovirus (negative control). Kind of assay: cell-based or functional assay.
Assay [30] addresses HIV-1 Env of pseudovirus isolate MGRM-G-013 (HIV-1). Kind of assay: cell-based or functional assay.
The target in assay [31] is HIV-1 Env of pseudovirus isolate MGRM-G-009 (HIV-1). The assay can be described thus: cell-based or functional assay.
Assay [32] has as its target HIV-1 Env of pseudovirus isolate MGRM-G-015 (HIV-1). The assay can be described thus: cell-based or functional assay.
Assay [33] concerns the target HIV-1 Env of pseudovirus isolate MGRM-G-016 (HIV-1). The assay can be described thus: cell-based or functional assay.

Drawing on patent US20250320281A1, this text covers IC50, EC50 and IC50 (µg/mL), pseudovirus neutralization for 7 substances.

A value given as a limit tells only on which side of the number the result lay.

Chain of 5345_I01 (PGT-137) (antibody) (VH): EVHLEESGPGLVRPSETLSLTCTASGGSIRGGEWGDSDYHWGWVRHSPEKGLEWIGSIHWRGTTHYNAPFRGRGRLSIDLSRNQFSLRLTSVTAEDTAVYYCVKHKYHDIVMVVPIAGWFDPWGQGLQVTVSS
Chain of 5345_I01 (PGT-137) (antibody) (VL): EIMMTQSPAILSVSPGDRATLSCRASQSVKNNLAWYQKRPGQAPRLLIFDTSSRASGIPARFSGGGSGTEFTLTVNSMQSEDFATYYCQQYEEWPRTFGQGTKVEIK
Chain of 1443_C16 (PG16) (TCN-116) (antibody) (VH): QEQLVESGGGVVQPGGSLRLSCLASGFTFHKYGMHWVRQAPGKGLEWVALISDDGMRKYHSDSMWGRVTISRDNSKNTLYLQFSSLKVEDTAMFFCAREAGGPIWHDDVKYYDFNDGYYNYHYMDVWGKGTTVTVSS
Chain of 1443_C16 (PG16) (TCN-116) (antibody) (VL): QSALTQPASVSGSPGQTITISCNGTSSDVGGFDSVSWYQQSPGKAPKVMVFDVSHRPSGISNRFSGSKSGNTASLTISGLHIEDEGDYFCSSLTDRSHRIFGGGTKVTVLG

As for 4E10 (antibody), the 50% inhibitory concentration (IC50) in [1] amounted to 1.47 µg/mL; in assay [2] it was 2.8 µg/mL; in assay [3] it was 16.4 µg/mL; in [4] it was 11 µg/mL; in [5], 4.94 µg/mL; in assay [6], 2.1 µg/mL. The IC50 worked out at 18.2 µg/mL in assay [7]; 22.6 µg/mL in assay [8]; 5.58 µg/mL in assay [9]; 3.49 µg/mL in assay [10]; 0.56 µg/mL in assay [11]; 5.84 µg/mL in assay [12]. Besides, the concentration for half-maximal inhibition (IC50) in [13] was determined as 2.97 µg/mL; in assay [14], 2.52 µg/mL; in assay [15], 2.48 µg/mL; in assay [16], 5.66 µg/mL; in [17], 24.2 µg/mL; in assay [18], 1.95 µg/mL. Also, the half-inhibitory concentration (IC50) is 0.44 µg/mL in [19] and 5.71 µg/mL in assay [20].
For 1443_C16 (PG16) (TCN-116) (antibody), the half-maximal inhibitory concentration (IC50) in [1] is 1.8 µg/mL; in [2] it was above 50 µg/mL; in assay [3] it was 2.55 µg/mL; in assay [4], above 50 µg/mL; in [5], 2.62 µg/mL; in assay [6] it was above 50 µg/mL. In addition, the IC50 in assay [7] was 28.3 µg/mL; in assay [8], 0.04 µg/mL; in [9] it was 0.04 µg/mL; in [10], 0.002 µg/mL; in assay [11], above 50 µg/mL; in [12] it was 0.05 µg/mL. Further, the concentration for half-maximal inhibition (IC50) in [13] is above 50 µg/mL; in assay [14], 0.26 µg/mL; in assay [15], above 50 µg/mL; in assay [16], 16.8 µg/mL; in assay [17], 5.09 µg/mL; in [18], 0.09 µg/mL. Besides, the IC50 in assay [19] stood at 0.48 µg/mL; in assay [20] it was 0.25 µg/mL.
Regarding 1495_C14 (PGC14) (antibody), the half-inhibitory concentration (IC50) in [1], in [2], in assay [3], in assay [4], in [5] and in [6] was above 50 µg/mL each time. Also, the IC50 in assay [7] was above 50 µg/mL; in assay [8] it was above 50 µg/mL; in assay [9] it was above 50 µg/mL; in assay [10], 12 µg/mL; in assay [11], above 50 µg/mL; in [12] it was above 50 µg/mL. Also, the IC50 in [13], in assay [14], in assay [15], in [16], in assay [17] and in assay [18] was above 50 µg/mL in each case. Moreover, the concentration for half-maximal inhibition (IC50) in assay [19] and in assay [20] was above 50 µg/mL throughout.
The substance 5114_A19 (PGT-128) (antibody) returned an EC50 in the assay with WT JR-FL gp120 (HIV-1) of 0.1 µg/mL. In addition, the IC50 (µg/mL), pseudovirus neutralization is above 50 µg/mL in assay [21]; above 50 µg/mL in [22]; 0.313 µg/mL in [23]; 0.319 µg/mL in assay [24]; 0.004 µg/mL in [25]; 8.21 µg/mL in [26]. In addition, the IC50 (µg/mL), pseudovirus neutralization in assay [27] was 0.019 µg/mL; in [28], 0.01 µg/mL; in [29] it was above 50 µg/mL; in [30], 0.995 µg/mL; in [31], above 50 µg/mL; in [32], above 50 µg/mL. This substance returned an IC50 (µg/mL), pseudovirus neutralization in [33] above 50 µg/mL.
5136_H01 (PGT-131) (antibody) showed an EC50 in the assay with WT JR-FL gp120 (HIV-1) of 0.4 µg/mL. For the same substance, the IC50 (µg/mL), pseudovirus neutralization in [21] was above 50 µg/mL; in assay [22], above 50 µg/mL; in [23], 2.9 µg/mL; in assay [24], above 50 µg/mL; in assay [25], 4.31 µg/mL; in assay [26] it was above 50 µg/mL. The IC50 (µg/mL), pseudovirus neutralization was 0.404 µg/mL in assay [27]; above 50 µg/mL in assay [28]; above 50 µg/mL in [29]; above 50 µg/mL in [30]; above 50 µg/mL in assay [31]; above 50 µg/mL in assay [32]. Besides, the IC50 (µg/mL), pseudovirus neutralization in assay [33] is above 50 µg/mL.
5345_I01 (PGT-137) (antibody) gave a half-maximal effective concentration (EC50) with WT JR-FL gp120 (HIV-1) of 0.1 µg/mL. For the same substance, the IC50 (µg/mL), pseudovirus neutralization is above 50 µg/mL in [21]; above 50 µg/mL in [22]; 0.228 µg/mL in assay [23]; 34.9 µg/mL in assay [24]; above 50 µg/mL in [25]; above 50 µg/mL in assay [26]. Further, the IC50 (µg/mL), pseudovirus neutralization is 41.7 µg/mL in assay [27]; 0.126 µg/mL in assay [28]; above 50 µg/mL in [29]; above 50 µg/mL in assay [30]; above 50 µg/mL in assay [31]; above 50 µg/mL in assay [32]. In [33], this substance gave an IC50 (µg/mL), pseudovirus neutralization above 50 µg/mL.
On to b12 (antibody), for which the IC50 was above 50 µg/mL in assay [1]; above 50 µg/mL in assay [2]; 2.66 µg/mL in [3]; above 50 µg/mL in assay [4]; above 50 µg/mL in assay [5]; above 50 µg/mL in assay [6]. Further, the IC50 in assay [7], in assay [8], in assay [9], in assay [10], in assay [11] and in [12] was above 50 µg/mL in each case. The IC50 is 1.51 µg/mL in assay [13]; 13.3 µg/mL in assay [14]; above 50 µg/mL in [15]; above 50 µg/mL in [16]; 5.46 µg/mL in assay [17]; 13.9 µg/mL in assay [18]. For the same substance, the IC50 in assay [19] and in assay [20] was above 50 µg/mL in each case.
